The data set addresses NF-kB1/p50-p50 (recombinant) (UniProt P19838 1-433). The experiment in a line: EMSA; without OGG1, time course; WCL/NE: 10 mM Tris-HCl pH 7.5, 1 mM EDTA, 50 mM NaCl, 2 mM DTT, 5% glycerol, 0.5% NP-40, BSA, poly(I:C), RT 20 min; His-IRF3: 10 mM Tris pH 7.5, 50 mM KCl, 1 mM DTT, 1% glycerol, 5 mM MgCl2, 0.05% NP-40, poly(I:C), RT 30 min. The conditions noted are these: protein: recombinant; chain copies: 2; label: Cy5 on 3' end of bottom strand (Methods text says 5'-Cy5); blunt.

We go through one molecule from PMC10436556, “Epigenetic control of type III interferon expression by 8-oxoguanine and its reader 8-oxoguanine DNA glycosylase1”.

NF-kB1/p50-p50 (recombinant), sequence (P19838 1-433): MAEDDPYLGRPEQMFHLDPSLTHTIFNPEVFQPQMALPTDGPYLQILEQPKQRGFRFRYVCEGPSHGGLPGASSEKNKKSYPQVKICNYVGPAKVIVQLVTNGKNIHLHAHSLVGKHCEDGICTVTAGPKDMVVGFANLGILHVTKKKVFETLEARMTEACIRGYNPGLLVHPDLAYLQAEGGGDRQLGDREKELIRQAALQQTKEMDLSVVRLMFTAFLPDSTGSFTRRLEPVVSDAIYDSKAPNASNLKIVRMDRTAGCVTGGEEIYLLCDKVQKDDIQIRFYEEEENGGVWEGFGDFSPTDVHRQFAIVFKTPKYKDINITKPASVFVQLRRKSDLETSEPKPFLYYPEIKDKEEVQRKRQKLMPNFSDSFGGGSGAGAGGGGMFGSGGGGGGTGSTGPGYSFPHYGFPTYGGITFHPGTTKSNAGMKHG

B1: Pr2 (dsDNA)
DNA 1: CTGTGTTTTCACTTTTCCTACATCAGCTGGGACTGCCCTTCTGTCAGGGATAA
DNA 2: TTATCCCTGACAGAAGGGCAGTCCCAGCTGATGTAGGAAAAGTGAAAACACAG
modifications: 8-oxoG at top position 48
B1: the binding result is reported as “binds”.
